Data published in patent US20200199204A1 (UNITED STATES OF AMERICA AS REPRESENTED BY THE SECRETARY …, published 2020).

Columns and labels:
Assay in all cases: cell-based or functional assay
[1] = biological target: HIV-1 Env of CAP256.PI (HIV-1)
[2] = biological target: HIV-1 Env of CAP256.SU (HIV-1)
[3] = biological target: HIV-1 Env of 96ZM651.02 (HIV-1)
[4] = biological target: HIV-1 Env of CAP210.E8 (HIV-1)
[5] = biological target: HIV-1 Env of CAP244.D3 (HIV-1)
[6] = biological target: HIV-1 Env of CAP45.G3 (HIV-1)
[7] = biological target: HIV-1 Env of DU156.12 (HIV-1)
[8] = biological target: HIV-1 Env of DU172.17 (HIV-1)
[9] = biological target: HIV-1 Env of DU422.01 (HIV-1)
[10] = biological target: HIV-1 Env of ZM109.4 (HIV-1)
[11] = biological target: HIV-1 Env of ZM135.10a (HIV-1)
[12] = biological target: HIV-1 Env of ZM197.7 (HIV-1)
[13] = biological target: HIV-1 Env of ZM214.15 (HIV-1)
[14] = biological target: HIV-1 Env of ZM233.6 (HIV-1)
[15] = biological target: HIV-1 Env of ZM249.1 (HIV-1)
[16] = biological target: HIV-1 Env of ZM53.12 (HIV-1)
[17] = biological target: HIV-1 Env of 0260.v5.c36 (HIV-1)
[18] = biological target: HIV-1 Env of BG505.w6m (HIV-1)
[19] = biological target: HIV-1 Env of KER2008.12 (HIV-1)
[20] = biological target: HIV-1 Env of KER2018.11 (HIV-1)
[21] = biological target: HIV-1 Env of MB201 (HIV-1)
[22] = biological target: HIV-1 Env of MB539.2B7 (HIV-1)
[23] = biological target: HIV-1 Env of Q168.a2 (HIV-1)
[24] = biological target: HIV-1 Env of Q23.17 (HIV-1)
[25] = biological target: HIV-1 Env of Q259.d2.17 (HIV-1)
[26] = biological target: HIV-1 Env of Q461.e2 (HIV-1)
[27] = biological target: HIV-1 Env of Q769.d22 (HIV-1)
[28] = biological target: HIV-1 Env of Q842.d12 (HIV-1)
[29] = biological target: HIV-1 Env of RW020.2 (HIV-1)
[30] = biological target: HIV-1 Env of UG037.8 (HIV-1)
[31] = biological target: HIV-1 Env of 6535.3 (HIV-1)
[32] = biological target: HIV-1 Env of AC10.29 (HIV-1)
[33] = biological target: HIV-1 Env of CAAN.A2 (HIV-1)
[34] = biological target: HIV-1 Env of PVO.04 (HIV-1)
[35] = biological target: HIV-1 Env of QH0692.42 (HIV-1)
[36] = biological target: HIV-1 Env of REJO.67 (HIV-1)
[37] = biological target: HIV-1 Env of RHPA.7 (HIV-1)
[38] = biological target: HIV-1 Env of SC422.8 (HIV-1)
[39] = biological target: HIV-1 Env of THRO.18 (HIV-1)
[40] = biological target: HIV-1 Env of TRJO.58 (HIV-1)
[41] = biological target: HIV-1 Env of TRO.11 (HIV-1)
[42] = biological target: HIV-1 Env of WITO.33 (HIV-1)
[43] = biological target: HIV-1 Env of 191821.E6.1 (HIV-1)
[44] = biological target: HIV-1 Env of 3016.V5.c36 (HIV-1)
[45] = biological target: HIV-1 Env of 6405.v4.c34 (HIV-1)
[46] = biological target: HIV-1 Env of C1080.c3 (HIV-1)
[47] = biological target: HIV-1 Env of CM244.ec1 (HIV-1)

B1: CAP256-VRC26.09 (antibody, V domains shown)
VH: EVQLVESGGGVVQPGRSLTLSCAASQFNFANYGMHWVRQAPGKGLEWVASISNDGTKKYHEESVWGRFTISKDNSKSTLFLQMNSLRIEDTALYFCVKDQREDECEEWWSDYYDFGRELPCRKSRGLGLAGIFDMWGHGTMVTVSS
VL: QSALTQPPSVSAAPGQKVTISCSGNSSNIGNNFVSWYQQLPGTAPKLLIYENNRRPSGIPDRFSGSKSGTSATLAISGLQTGDEADYWCAVWGVRRGAGAVFGAGTKVTVLG
neutralization IC50 [1]: > 50 µg/mL | neutralization IC50 [2]: 0.002 µg/mL | neutralization IC50 [3]: 0.991 µg/mL | neutralization IC50 [4]: 0.002 µg/mL | neutralization IC50 [5]: > 50 µg/mL | neutralization IC50 [6]: 16 µg/mL | neutralization IC50 [7]: 0.016 µg/mL | neutralization IC50 [8]: > 50 µg/mL | neutralization IC50 [9]: 0.023 µg/mL | neutralization IC50 [10]: > 50 µg/mL | neutralization IC50 [11]: > 50 µg/mL | neutralization IC50 [12]: 0.011 µg/mL | neutralization IC50 [13]: 0.333 µg/mL | neutralization IC50 [14]: 0.001 µg/mL | neutralization IC50 [15]: 0.01 µg/mL | neutralization IC50 [16]: 0.002 µg/mL | neutralization IC50 [17]: > 50 µg/mL | neutralization IC50 [18]: 0.054 µg/mL | neutralization IC50 [19]: > 50 µg/mL | neutralization IC50 [20]: 0.002 µg/mL | neutralization IC50 [21]: > 50 µg/mL | neutralization IC50 [22]: 40.7 µg/mL | neutralization IC50 [23]: 0.181 µg/mL | neutralization IC50 [24]: 9.5 µg/mL | neutralization IC50 [25]: 0.008 µg/mL | neutralization IC50 [26]: 0.705 µg/mL | neutralization IC50 [27]: > 50 µg/mL | neutralization IC50 [28]: 10.1 µg/mL | neutralization IC50 [29]: > 50 µg/mL | neutralization IC50 [30]: > 50 µg/mL | neutralization IC50 [31]: > 50 µg/mL | neutralization IC50 [32]: > 50 µg/mL | neutralization IC50 [33]: > 50 µg/mL | neutralization IC50 [34]: > 50 µg/mL | neutralization IC50 [35]: > 50 µg/mL | neutralization IC50 [36]: > 50 µg/mL | neutralization IC50 [37]: > 50 µg/mL | neutralization IC50 [38]: > 50 µg/mL | neutralization IC50 [39]: > 50 µg/mL | neutralization IC50 [40]: > 50 µg/mL | neutralization IC50 [41]: > 50 µg/mL | neutralization IC50 [42]: > 50 µg/mL | neutralization IC50 [43]: 0.054 µg/mL | neutralization IC50 [44]: 0.004 µg/mL | neutralization IC50 [45]: > 50 µg/mL | neutralization IC50 [46]: 0.019 µg/mL | neutralization IC50 [47]: 0.105 µg/mL

B2: CAP256-VRC26.10 (antibody, V domains shown)
VH: QAILVESGGGVVQPGRSLRLSCAASQFTFSGHGLHWVRQAPGKGLEWVASISFAGTKMDYADSVKGRFAISRDNSKNTLYLQMNSLRVEDTALYYCAKDMREYECEYWTSDYYDFGRPQPCIDRRGVVGIFDMWGQGTMVTVST
VL: QSVLTQPPSVSAAPGQKVTISCSGSSSNIGDNYVSWYQHLPGTAPKLLIYENTRRPSGIPDRFSGSKSGTSATLAITGLQTGDEADYYCGTWDVRPNRGAVFGTGTKVTVLG
neutralization IC50 [1]: > 50 µg/mL | neutralization IC50 [2]: 0.031 µg/mL | neutralization IC50 [3]: > 50 µg/mL | neutralization IC50 [4]: 0.1 µg/mL | neutralization IC50 [5]: > 50 µg/mL | neutralization IC50 [6]: > 50 µg/mL | neutralization IC50 [7]: > 50 µg/mL | neutralization IC50 [8]: > 50 µg/mL | neutralization IC50 [9]: 8.2 µg/mL | neutralization IC50 [10]: > 50 µg/mL | neutralization IC50 [11]: > 50 µg/mL | neutralization IC50 [12]: 0.346 µg/mL | neutralization IC50 [13]: > 50 µg/mL | neutralization IC50 [14]: 0.228 µg/mL | neutralization IC50 [15]: > 50 µg/mL | neutralization IC50 [16]: 0.072 µg/mL | neutralization IC50 [17]: > 50 µg/mL | neutralization IC50 [18]: > 50 µg/mL | neutralization IC50 [19]: > 50 µg/mL | neutralization IC50 [20]: 0.335 µg/mL | neutralization IC50 [21]: > 50 µg/mL | neutralization IC50 [22]: > 50 µg/mL | neutralization IC50 [23]: > 50 µg/mL | neutralization IC50 [24]: 2.59 µg/mL | neutralization IC50 [25]: 24.6 µg/mL | neutralization IC50 [26]: > 50 µg/mL | neutralization IC50 [27]: > 50 µg/mL | neutralization IC50 [28]: > 50 µg/mL | neutralization IC50 [29]: > 50 µg/mL | neutralization IC50 [30]: > 50 µg/mL | neutralization IC50 [31]: > 50 µg/mL | neutralization IC50 [32]: > 50 µg/mL | neutralization IC50 [33]: > 50 µg/mL | neutralization IC50 [34]: 2.48 µg/mL | neutralization IC50 [35]: > 50 µg/mL | neutralization IC50 [36]: > 50 µg/mL | neutralization IC50 [37]: > 50 µg/mL | neutralization IC50 [38]: > 50 µg/mL | neutralization IC50 [39]: > 50 µg/mL | neutralization IC50 [40]: > 50 µg/mL | neutralization IC50 [41]: > 50 µg/mL | neutralization IC50 [42]: > 50 µg/mL | neutralization IC50 [43]: > 50 µg/mL | neutralization IC50 [44]: 0.017 µg/mL | neutralization IC50 [45]: > 50 µg/mL | neutralization IC50 [46]: > 50 µg/mL | neutralization IC50 [47]: 0.914 µg/mL
